Laboratory results as given in US20060251655A1.

Molecular target: von Willebrand factor (vWF), prepared from plasma cryo fraction, P04275

Row | Protein | vWF cleaving activity (SDS-PAGE)
1 | W746stop (C-terminal deletion variant of ADAMTS-13, FLAG appended) (protein) PSHFQQSCLQALEPQAVSSYLSPGAPLKGRPPSPGFQRQRQRQRRAAGGILHLELLVAVGPDVFQAHQEDTERYVLTNLNIGAELLRDPSLGAQFRVHLVKMVILTEPEGAPNITANLTSSLLSVCGWSQTINPEDDTDPGHADLVLYITRFDLELPDGNRQVRGVTQLGGACSPTWSCLITEDTGFDLGVTIAHEIGHSFGLEHDGAPGSGCGPSGHVMASDGAAPRAGLAWSPCSRRQLLSLLSAGRARCVWDPPRPQPGSAGHPPDAQPGLYYSANEQCRVAFGPKAVACTFAREHLDMCQALSCHTDPLDQSSCSRLLVPLLDGTECGVEKWCSKGRCRSLVELTPIAAVHGRWSSWGPRSPCSRSCGGGVVTRRRQCNNPRPAFGGRACVGADLQAEMCNTQACEKTQLEFMSQQCARTDGQPLRSSPGGASFYHWGAAVPHSQGDALCRHMCRAIGESFIMKRGDSFLDGTRCMPSGPREDGTLSLCVSGSCRTFGCDGRMDSQQVWDRCQVCGGDNSTCSPRKGSFTAGRAREYVTFLTVTPNLTSVYIANHRPLFTHLAVRIGGRYVVAGKMSISPNTTYPSLLEDGRVEYRVALTEDRLPRLEEIRIWGPLQEDADIQVYRRYGEEYGNLTRPDITFTYFQPKPRQAWVWAAVRGPCSVSCGAGLRWVNYSCLDQARKELVETVQCQGSQQPPAWPEACVLEPCPPYWDYKDDDDK | vWF cleaving activity was clearly recognized from the full-length molecule to W688stop molecule
2 | W808stop (C-terminal deletion variant of ADAMTS-13, FLAG appended) (protein) PSHFQQSCLQALEPQAVSSYLSPGAPLKGRPPSPGFQRQRQRQRRAAGGILHLELLVAVGPDVFQAHQEDTERYVLTNLNIGAELLRDPSLGAQFRVHLVKMVILTEPEGAPNITANLTSSLLSVCGWSQTINPEDDTDPGHADLVLYITRFDLELPDGNRQVRGVTQLGGACSPTWSCLITEDTGFDLGVTIAHEIGHSFGLEHDGAPGSGCGPSGHVMASDGAAPRAGLAWSPCSRRQLLSLLSAGRARCVWDPPRPQPGSAGHPPDAQPGLYYSANEQCRVAFGPKAVACTFAREHLDMCQALSCHTDPLDQSSCSRLLVPLLDGTECGVEKWCSKGRCRSLVELTPIAAVHGRWSSWGPRSPCSRSCGGGVVTRRRQCNNPRPAFGGRACVGADLQAEMCNTQACEKTQLEFMSQQCARTDGQPLRSSPGGASFYHWGAAVPHSQGDALCRHMCRAIGESFIMKRGDSFLDGTRCMPSGPREDGTLSLCVSGSCRTFGCDGRMDSQQVWDRCQVCGGDNSTCSPRKGSFTAGRAREYVTFLTVTPNLTSVYIANHRPLFTHLAVRIGGRYVVAGKMSISPNTTYPSLLEDGRVEYRVALTEDRLPRLEEIRIWGPLQEDADIQVYRRYGEEYGNLTRPDITFTYFQPKPRQAWVWAAVRGPCSVSCGAGLRWVNYSCLDQARKELVETVQCQGSQQPPAWPEACVLEPCPPYWAVGDFGPCSASCGGGLRERPVRCVEAQGSLLKTLPPARCRAGAQQPAVALETCNPQPCPARWDYKDDDDK | vWF cleaving activity was clearly recognized from the full-length molecule to W688stop molecule
3 | W897stop (C-terminal deletion variant of ADAMTS-13, FLAG appended) (protein) PSHFQQSCLQALEPQAVSSYLSPGAPLKGRPPSPGFQRQRQRQRRAAGGILHLELLVAVGPDVFQAHQEDTERYVLTNLNIGAELLRDPSLGAQFRVHLVKMVILTEPEGAPNITANLTSSLLSVCGWSQTINPEDDTDPGHADLVLYITRFDLELPDGNRQVRGVTQLGGACSPTWSCLITEDTGFDLGVTIAHEIGHSFGLEHDGAPGSGCGPSGHVMASDGAAPRAGLAWSPCSRRQLLSLLSAGRARCVWDPPRPQPGSAGHPPDAQPGLYYSANEQCRVAFGPKAVACTFAREHLDMCQALSCHTDPLDQSSCSRLLVPLLDGTECGVEKWCSKGRCRSLVELTPIAAVHGRWSSWGPRSPCSRSCGGGVVTRRRQCNNPRPAFGGRACVGADLQAEMCNTQACEKTQLEFMSQQCARTDGQPLRSSPGGASFYHWGAAVPHSQGDALCRHMCRAIGESFIMKRGDSFLDGTRCMPSGPREDGTLSLCVSGSCRTFGCDGRMDSQQVWDRCQVCGGDNSTCSPRKGSFTAGRAREYVTFLTVTPNLTSVYIANHRPLFTHLAVRIGGRYVVAGKMSISPNTTYPSLLEDGRVEYRVALTEDRLPRLEEIRIWGPLQEDADIQVYRRYGEEYGNLTRPDITFTYFQPKPRQAWVWAAVRGPCSVSCGAGLRWVNYSCLDQARKELVETVQCQGSQQPPAWPEACVLEPCPPYWAVGDFGPCSASCGGGLRERPVRCVEAQGSLLKTLPPARCRAGAQQPAVALETCNPQPCPARWEVSEPSSCTSAGGAGLALENETCVPGADGLEAPVTEGPGSVDEKLPAPEPCVGMSCPPGWGHLDATSAGEKAPSPWGSIRTGAQAAHVWDYKDDDDK | vWF cleaving activity was clearly recognized from the full-length molecule to W688stop molecule
